# Reference: the supplement of paper PMC12042874
# ± gives the uncertainty stated by the source.
# Experiment: amyloid nucleation score (Sup35N fusion, yeast selection) (log enrichment); library NNK3; higher = more nucleation; inactive = no reads after selection
# How it was run: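 DiMSum was used to calculate nucleation scores as log enrichment of output over input reads, centred on the mode score of non-aggregating sequences. Sequences with fewer than 100 input reads were not scored. Input and output came from Illumina sequencing of plasmid inserts in psi-negative yeast expressing peptides of 20 random codons fused to Sup35N, induced 24 hours with 100 μM copper sulfate and then grown 7 days at 30°C on medium lacking adenine and uracil.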
row,Substance,amyloid nucleation score
1,GLDHLPMFWYRPLIWPDVPQ,inactive
2,RQHMDGVVDI,inactive
3,LVGVSRRSREGDSTLSPSLG,inactive
4,LTFTAVNWAVPVGRGT,inactive
5,NWDRGLTCHMYRFSNWRWGS,inactive
6,SAVVMRSQADSFDYLN,inactive
7,DYESCEIRVLETEWIGVGT,inactive
8,MEVFFTSTFIGEFNRVCDTY,inactive
9,FLFRRLGRSYYKYAV,inactive
10,LMIISGCSHMSHSVRSTRGL,-0.217 ± 0.58
11,FLWMSGSSGWLSTVVIGGSW,inactive
12,MIKMAIRNLGYCSDYRTLCR,inactive
13,YHAYRTGE,inactive
14,IVFFYAEIGYSPSQCRRRVA,inactive
15,TSKFPSDLWSNPPEMYALFI,inactive
16,RMTMFRTEAAVVKRSVSTVV,inactive
17,FMKSMVLYPDTVLFYFCLLH,inactive
18,VLVGDDCDRTVANVQ,inactive
19,STCKKNWNIARRI,inactive
20,ASFLVYGP,inactive
21,DSKSSYK,inactive
22,LDRFENINRL,inactive
23,VLLCYNIVKPYNVSC,inactive

row,Substance,amyloid nucleation score
1,CVTGVSLPGNRISG,inactive
2,LNMLKVLFSWIRYDGNQ,inactive
3,IRFYQKCVLSACVTSTRIMV,inactive
4,SFTLPSIGWWYALFRSYWID,inactive
5,GYYFWQWLRIIL,inactive
6,MWLKPCRGKIKMRGYFSLNG,inactive
7,TVFSDFSGSKEMTVTIRRWV,inactive
8,RIIIVYR,inactive
9,VGLAVVSLLSNRRNEDELCF,inactive
10,TKKASSYQVDWFSCCWEYGA,0.708 ± 0.26
11,PTIYRMFGVGQMVMN,inactive
12,VSNCFTSLQT,inactive
13,FWLGGVDLAPKVGKQTMNLA,inactive
14,PTEVYEATYCHFTNLL,inactive
15,IRTNYRRGKEAGVSGADSCS,inactive
16,NTGWSF,inactive
17,KSYFANSG,inactive
18,MAVSRK,inactive
19,SNIGHM,inactive
20,GQHSRSLDTSACCPT,inactive
21,TLGPKEGWLVSNWMWSRVII,inactive
22,VTLVNKKGWSFATAITMWKR,inactive
23,PFPGRTLKWNLYTSQFFMAG,inactive

row,Substance,amyloid nucleation score
1,LDEFY,inactive
2,IDSNGYVLLVRDGREKVVRC,0.204 ± 0.29
3,RLKNHSGCIILNRCVSRGRI,inactive
4,AVLKILFVRPCYVINMSLKY,0.199 ± 0.64
5,LCTKGYWFKAPNYLLSKLCF,inactive
6,VNNKHVVWCSVHGGSSR,inactive
7,SVRRHSSGCMNNAL,inactive
8,PSFFRKLFLPFASYLTMCGE,inactive
9,RWTLYSLSTYYQLCF,0.685 ± 0.12
10,ISKAVSWCASCRSTQV,inactive
11,GCVSGRHDNTFRDYD,inactive
12,WNRTEDMR,inactive
13,SGIMSHVGGTELLNSLHLMF,inactive
14,AFLSMSGNLLVVYSGEGGSP,-0.027 ± 0.35
15,ACVSGIIFLLREQLLKMSGI,inactive
16,SRWYFGLLLMNNTHTVNVPL,inactive
17,FLIKSFWNMIVCEAGDCCKD,1.75 ± 0.12
18,GVLLFLYCYLRGPLYSTTSV,inactive
19,SFGAKCARGQDSTASVFNNG,-0.33 ± 1.1
20,TFSFHLCIQEPTSFDNSLHT,0.164 ± 0.36
21,KCGFYRTVFCSRVCVRS,inactive
22,SVRVYGDCLCECWSCYTPRT,0.502 ± 0.32
23,PFNPSYIFRLLYL,inactive

row,Substance,amyloid nucleation score
1,YSWVKEYLSLLSYYCNYRVD,inactive
2,PDAHTKMT,0.603 ± 0.27
3,GKGPNCMGASFLNGAHWSGI,inactive
4,SFNLNCDDQSRNYRADVSDS,1.16 ± 0.099
5,LFMEDVLRFGLLYLI,inactive
6,FKRTTMCGDYAVYVTPGTSL,inactive
7,LVVLFGPNFLIPVGLRIAVN,0.245 ± 0.37
8,IVLIKDYYSIRFDSEGIVDI,inactive
9,LSYSRTGASC,inactive
10,IGWKEVSA,-0.006 ± 0.35
11,FRCTRGSIVWSFYFVRNLMI,inactive
12,VWVDFGFPVHMIIL,inactive
13,KFCASSCWMNYSVFGMYLSI,inactive
14,MNRNVTSRVRTPPVCVRVRF,inactive
15,FRSTGRKQELLLHSRKKQLP,inactive
16,ESIRCFSTYKNGSIRSFRAL,inactive
17,SDLGHWHIFRYLAAIASRRK,inactive
18,YVVNFVLL,2.43 ± 0.085
19,WSVGATWVVAFA,inactive
20,FGQSLAEIRFLFIPIDKMRR,inactive
21,FTIGNTA,inactive
22,LAVVDCGYM,inactive
23,YSTRPSYFLDLMLYIDTWVQ,inactive

row,Substance,amyloid nucleation score
1,NSCYFFNLHYVYHETANCFI,3.2 ± 0.068
2,RVCSALCIRVLALFGCCSVE,1.05 ± 0.19
3,LCHRY,inactive
4,MTSMLVTMMPCWVMRFVVWE,inactive
5,GLVLTPDEEMIRQWEMLTYG,inactive
6,HLKSVGVVYDWMSQWSLWCR,inactive
7,YLMIIDRPKSHNLPYLGMLH,inactive
8,MSVRGHSSTVVYLCREPGLK,0.402 ± 0.38
9,PAERYKRSSLAKSYRLNYRS,inactive
10,VGYVWIDRYVWRYGLC,inactive
11,CCGQIADSFLPKSSRGEVRN,inactive
12,MIWAEQGFFVRWWDLFA,inactive
13,IKSCGVNNIAFLQVCHRWCS,1.6 ± 0.082
14,KCVWWCTNWLNVKWVYSTRC,inactive
15,VLLDMFRNFVWNSRVVFNGS,inactive
16,SKVKFILTRVPLFLLRIAES,inactive
17,FKAWMSLKLSTRRLNSCVPR,inactive
18,RTFIKAKLP,inactive
19,IIMRDYTAMCI,inactive
20,FHWYFAVSYTSYNMLSVWFV,inactive
21,FIASNASNCWYLMFVAKLYG,inactive
22,EGFPV,inactive
23,FMVSMIIESSAGTFFMLSLV,inactive

row,Substance,amyloid nucleation score
1,LRYWWLDLTYYL,inactive
2,GIWDWVLAIMLRFVTKPS,inactive
3,FIGDVLGSINGKCHLEYLYF,inactive
4,YFLFNTYWDRALQSKTVGGL,inactive
5,HSVIPWDTISDTA,inactive
6,YRRYPVIR,inactive
7,LKTCFIP,inactive
8,GNWWCNCTQYNLGMMDSALG,1.98 ± 0.071
9,YKGYSVCIVLPFG,-0.542 ± 0.98
10,AHKIVFELTYTVLS,inactive
11,MIWFVLL,2.17 ± 0.089
12,CRLPLQSL,inactive
13,FLETV,inactive
14,VYASCTFNIEKVLSVVQTTF,1.52 ± 0.087
15,PSLQRSQRVSEFRTM,inactive
16,LWIWR,-0.43 ± 0.7
17,RCNLTCLGMIDVTIS,inactive
18,RSGWCHLPQVRNMWTVIIDG,-0.648 ± 1.1
19,FHGYRLVYPSDYPWCLSSVH,inactive
20,SQKEGNKDRPVCVSGNSSCS,inactive
21,RRWQVCVAGQDSEGTVKVML,0.108 ± 0.56
22,LFLMWRTYYVNILESSCVVC,inactive
23,IMFSVRRLKSILSRVAWYNT,inactive

row,Substance,amyloid nucleation score
1,HGRLLYVSYISDMINASYGQ,inactive
2,FDLVFLLYMGMTQ,inactive
3,DFELFSSALGSLSNGHSENV,inactive
4,FKTKDIVRKDEANSHWSMSG,inactive
5,VYSEFWVHMLLLSFRVIYIL,inactive
6,CYFLQ,inactive
7,SANGMSNRRYSDHHLYVVSA,inactive
8,SFNFSRHLVLF,inactive
9,NMNSISYSQPIFRSRTRRRM,inactive
10,TIVTIVAFFNMERYGHFRGD,0.903 ± 0.11
11,HVTRLVFMNSRYVAKFVGRA,inactive
12,TLNRLDSHGSFFRMNVREGV,inactive
13,SASEKTDSNVVEFCVGRCI,inactive
14,SLFCRWLVVYPSMLRVKRVR,inactive
15,VCLHDRLGVHVGQIRLGYRC,inactive
16,NFVGTICLCLSYYVSVNSCC,inactive
17,TRDQHIIYYFVEPFKIITGM,1.5 ± 0.099
18,AYGRVTMCIGWKDPYGRCL,0.638 ± 0.31
19,HTWFNFVYEVRSNKLTP,inactive
20,PDVNVRGGGQLVV,inactive
21,YRNRTVFALSGLSQGDLPEV,inactive
